In the experiment the target is T1, recombinant HIV-1HXB2 gp41 (Vybion Inc.) (HIV-1 HXB2, UniProt P04578 541-682).
T1 construct: domain: gp41; Bought reagent; also called rgp41
Kind of experiment: ELISA, plate-bound recombinant HIV-1HXB2 gp41, serial dilutions of rCNID-1-Trx, detection with rabbit anti-CNID-1. For orientation: ELISA stands for enzyme-linked immunosorbent assay.

B1: recombinant CNID-1 in fusion with thioredoxin (thioredoxin-hexahistidine-CNID-1) (other)
chain: GRATLGQLKTSTIPPVTFDVPFDGANIPQDVRFTIATVNGGKGALYNAELGESAGHTIVLESDGDHPIPGTFDPKSGRGLDYLPRGLVLFSSHNYVGNMKMYTEPDSDITADFPPGTPFGVSSAITGEGSAFQLNTGIDHTGEFEIIPPNTKRNLAGVFDNEIRSVSPTGGK
modifications: Europium label in the reference-protein ELISA only; otherwise none stated
notes: The N-terminal residue of native CNID-1 is sarcosine; also called rCNID-1-Trx; CNID-1-Trx; not shown: N-terminal thioredoxin (Trx) encoded by the Novagen pET32b(+) Trx fusion vector
As for B1, the binding result is reported as “no binding”.

Source of the values: patent US20160333060A1 (UNITED STATES OF AMERICA AS REPRESENTED BY THE SECRETARY …, published 2016).
